B1: QYD60: AAD-like candidate enzyme; 100.00% identical to US20160002662-0002 (protein)
chain: MSPAFDIAPLDATFGAVVTGVKLADLDDAGWLDLQAAWLEYALLVFPDQHLTREQQIAFARRFGPLEFEMAAISNVRPDGSLRVESDNDDMMKILKGNMGWHADSTYMPVQAKGAVFSAEVVPSVGGQTGFADMRAAYDALDEDLKARVETLQARHSLHYSQSKLGHQTKAADGEYSGYGLHDGPVPLRPLVKIHPETGRKSLLIGRHAHAIPGLEPAESERLLQQLIDFACQPPRIYHHDWAPGDAVLWDNRCLLHQATPWDMTQKRIMWHSRIAGDPASETALAH
modifications: Synthetic polypeptide, QYD60, D60
B2: QYD61: AAD-like candidate enzyme; 100.00% identical to US20190024109-0292 (protein)
chain: MSVVANPLHPLFAAGVEDIDLREALGSTEVREIERLMDEKSVLVFRGQPLSQDQQIAFARNFGPLEGGFIKVNQRPSRFKYAELADISNVSLDGKVAQRDAREVVGNFANQLWHSDSSFQQPAARYSMLSAVVVPPSGGDTEFCDMRAAYDALPRDLQSELEGLRAEHYALNSRFLLGDTDYSEAQRNAMPPVNWPLVRTHAGSGRKFLFIGAHASHVEGLPVAEGRMLLAELLEHATQREFVYRHRWNVGDLVMWDNRCVLHRGRRYDISARRELRRATTLDDAVV
modifications: Synthetic polypeptide, QYD61, D61
B3: QYD63: AAD-like candidate enzyme; 100.00% identical to US20140179534-0002 (protein)
chain: MSSLELTPLHPLFAAEARGIDIRQPLSPSEVKQINAAMNRYAVLVWRGQPLTGQQQIDFAKAFGPLDLGLKKVFKRPERLEDERLIDISNVDAEGKVARRDSPKNLSNFANQLWHSDSSFQNPRAAYSMLHALVLPSWGGNTEFAELRAAYDALPERTRSEIEGLRAEHYALHTRILLGDEAYTDDQKKAIPPAVWPLAQTHPGSGRKLLFVGVHAREIIGWPVAEGRMFLSDLLEHATRREFVYTHEWQVGDLVMWDNRSTLHRGRRYDIGERRELRRTTIEDVPEATLMAA
modifications: Synthetic polypeptide, QYD63, D63
B4: QYD64: AAD-like candidate enzyme; 100.00% identical to US20180066275-0002 (protein)
chain: MSLQLKPLHPVFGAEASGLDLTRPLSDADVRAVNAAMNEHAVLVFRGQPLTAQQQLDFAKHFGPLDIGLKRVFKRPERLEDERLIDISNVDAQGNIARRDSPKNLSNFANQLWHSDSSFMNPRAAYSMLHCVIKPSWGGNTEFADLRHAYDTLDERTKAEIQDLKAEHFALHTRILLGDDAYTDDQKKEIPPAVWPLADTHPGSGRKVLFVGVHAREIIGWPVAEARMYLSDLLEHATRRENVYVHEWTPGDLVIWDNRSTLHRGRRYDITERRELRRTTINDTPEAMLMAA
modifications: Synthetic polypeptide, QYD64, D64
B5: QYD65: AAD-like candidate enzyme; 100.00% identical to CN103013939-0002 (protein)
chain: MAIAIRQLHPHFVGEVSGVDLRHPLTRDEVAELQAAIDHYAVLVFHDQDIGDEQQLAFALNFGDREKARGGTVTKKEDYRLTTGLNDVSNLGKDGKPLPPDHRTHLFNLGNCLWHSDSSFRPIPAKYSILSARIVNPKGGNTEFADMRAAYDALDEQTKAEIDDLVSEHSLMYSRGSLGFLDYTDEEKKMFKPVRQRLVRTHPAHGRKSLYLSSHAGAVVGMSMPEGRLLLRDLTEHATQPEFVYVHKWRLHDLVMWDNRQTVHRVRRYDQSQPRDMRRATVAGTEPTVAQQAAE
modifications: Synthetic polypeptide, QYD65, D65

Assay: Chromogenic reaction of degrading herbicides in bacteria: 2,4-D
Format: cell-based, Escherichia coli
Conditions: recombinant E. coli expressing the gene, 2,4-D added to the medium; red = phenols
Procedure: To transform the plasmids to be tested, an AAD12-expressing plasmid and a blank control plasmid pET15b were respectively transformed into the protein expression E. coli BL21(DE3) strains. A monoclone was selected and inoculated in a 10 ml centrifuge tube with 3 ml LB medium, and cultivated at 37° C., 200 rpm for 6-8 hours. The culture medium was added with 0.1 mM IPTG and 2 mM α-ketoglutaric acid, and then 0.5 mM 2,4-D. The temperature was switched to 28° C. and the cultivation continued overnight. In the next morning, 200 μL of each bacteria solution was taken and centrifuged to precipitate thallus, 180 μL of the supernatant was taken and added in a 96-well plate, and 20 μL of borate buffer of pH 10 was added. Then the mixture was added with 2 μL of 8% potassium ferricyanide and mixed well, followed by adding 2 μL of 2% 4-aminoantipyrine, and placed at room temperature for 5 min to observe the color and detect the A510 value.
The bacteria solution also appeared red when 2,4-D was directly added into the medium of AAD12-expressing bacteria, as shown in FIG. 1.
2,4-D was added into these bacteria solutions of AAD gene-expressing recombinant E. coli and cultivation was continued for color development.

Molecule	Chromogenic reaction of degrading herbicides in bacteria: 2,4-D
B1	Yes
B2	Yes
B3	Yes
B4	Yes
B5	Yes
